Experimental data: patent US20120172295A1 (INDIANA UNIVERSITY RESEARCH AND TECHNOLOGY, published 2012)
Positions of bridges follow the written chain, without caps; N, C: chain ends. Non-standard residues stand in square brackets, D forms with d. No end group written: not given here. PEG = not defined here; Aib = CC(C)(N)C(=O)O

Tests used:
glucagon receptor = glucagon receptor (UniProt P47871 26-477, limits assumed); assay: cell-based or functional assay
GLP-1 receptor = GLP-1 receptor (UniProt P43220 24-463, limits assumed); assay: cell-based or functional assay

glucagon receptor, sequence (P47871 26-477 limits assumed): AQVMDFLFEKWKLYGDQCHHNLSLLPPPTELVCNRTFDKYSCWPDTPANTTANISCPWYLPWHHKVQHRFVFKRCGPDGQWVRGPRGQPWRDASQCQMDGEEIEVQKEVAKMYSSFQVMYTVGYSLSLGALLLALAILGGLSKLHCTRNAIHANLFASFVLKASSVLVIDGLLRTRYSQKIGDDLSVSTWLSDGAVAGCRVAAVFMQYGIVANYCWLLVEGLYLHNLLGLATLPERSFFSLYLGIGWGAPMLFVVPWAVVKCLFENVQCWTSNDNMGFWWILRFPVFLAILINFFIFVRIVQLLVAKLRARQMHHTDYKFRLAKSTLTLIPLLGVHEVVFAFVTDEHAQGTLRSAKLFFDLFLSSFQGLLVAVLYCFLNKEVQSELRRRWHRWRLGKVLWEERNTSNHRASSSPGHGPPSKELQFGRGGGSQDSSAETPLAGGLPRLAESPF

| Binder | % Potency Relative to Native (glucagon receptor) [%] | % Potency Relative to Native (GLP-1 receptor) [%] |
| --- | --- | --- |
| H[Aib]QGTFTSDYSKYLDEQAAKEFIAWLMNGGPSSGAPPPSC-NH2 (N-terminus assumed; SMILES CC[C@H](C)[C@H](NC(=O)[C@H](Cc1ccccc1)NC(=O)[C@H](CCC(=O)O)NC(=O)[C@H](CCCCN)NC(=O)[C@H](C)NC(=O)[C@H](C)NC(=O)[C@H](CCC(N)=O)NC(=O)[C@H](CCC(=O)O)NC(=O)[C@H](CC(=O)O)NC(=O)[C@H](CC(C)C)NC(=O)[C@H](Cc1ccc(O)cc1)NC(=O)[C@H](CCCCN)NC(=O)[C@H](CO)NC(=O)[C@H](Cc1ccc(O)cc1)NC(=O)[C@H](CC(=O)O)NC(=O)[C@H](CO)NC(=O)[C@@H](NC(=O)[C@H](Cc1ccccc1)NC(=O)[C@@H](NC(=O)CNC(=O)[C@H](CCC(N)=O)NC(=O)C(C)(C)NC(=O)[C@@H](N)Cc1c[nH]cn1)[C@@H](C)O)[C@@H](C)O)C(=O)N[C@@H](C)C(=O)N[C@@H](Cc1c[nH]c2ccccc12)C(=O)N[C@@H](CC(C)C)C(=O)N[C@@H](CCSC)C(=O)N[C@@H](CC(N)=O)C(=O)NCC(=O)NCC(=O)N1CCC[C@H]1C(=O)N[C@@H](CO)C(=O)N[C@@H](CO)C(=O)NCC(=O)N[C@@H](C)C(=O)N1CCC[C@H]1C(=O)N1CCC[C@H]1C(=O)N1CCC[C@H]1C(=O)N[C@@H](CO)C(=O)N[C@@H](CS)C(N)=O) [Chimera AIB2, Gly29,30 Cys40 Cex (SEQ ID NO: 488), parent w/o PEG] | 2.2 | 359 |
| H[Aib]QGTFTSDYSKYLDEQAAKEFICWLMNGGPSSGAPPPS-NH2 (N-terminus assumed; SMILES CC[C@H](C)[C@H](NC(=O)[C@H](Cc1ccccc1)NC(=O)[C@H](CCC(=O)O)NC(=O)[C@H](CCCCN)NC(=O)[C@H](C)NC(=O)[C@H](C)NC(=O)[C@H](CCC(N)=O)NC(=O)[C@H](CCC(=O)O)NC(=O)[C@H](CC(=O)O)NC(=O)[C@H](CC(C)C)NC(=O)[C@H](Cc1ccc(O)cc1)NC(=O)[C@H](CCCCN)NC(=O)[C@H](CO)NC(=O)[C@H](Cc1ccc(O)cc1)NC(=O)[C@H](CC(=O)O)NC(=O)[C@H](CO)NC(=O)[C@@H](NC(=O)[C@H](Cc1ccccc1)NC(=O)[C@@H](NC(=O)CNC(=O)[C@H](CCC(N)=O)NC(=O)C(C)(C)NC(=O)[C@@H](N)Cc1c[nH]cn1)[C@@H](C)O)[C@@H](C)O)C(=O)N[C@@H](CS)C(=O)N[C@@H](Cc1c[nH]c2ccccc12)C(=O)N[C@@H](CC(C)C)C(=O)N[C@@H](CCSC)C(=O)N[C@@H](CC(N)=O)C(=O)NCC(=O)NCC(=O)N1CCC[C@H]1C(=O)N[C@@H](CO)C(=O)N[C@@H](CO)C(=O)NCC(=O)N[C@@H](C)C(=O)N1CCC[C@H]1C(=O)N1CCC[C@H]1C(=O)N1CCC[C@H]1C(=O)N[C@@H](CO)C(N)=O) [Chimera AIB2, Gly29,30 Cys24 Cex (SEQ ID NO: 490), parent w/o PEG] | 2.5 | 458 |
| H[Aib]QGTFTSDYSKYLDEQAAKEFIAWLMNGGPSSGAPPPSC-NH2 (lactam 16-20; N-terminus assumed; SMILES CC[C@H](C)[C@H](NC(=O)[C@H](Cc1ccccc1)NC(=O)[C@H](CCC(=O)O)NC(=O)[C@@H]1CCCCNC(=O)CC[C@H](NC(=O)[C@H](CC(=O)O)NC(=O)[C@H](CC(C)C)NC(=O)[C@H](Cc2ccc(O)cc2)NC(=O)[C@H](CCCCN)NC(=O)[C@H](CO)NC(=O)[C@H](Cc2ccc(O)cc2)NC(=O)[C@H](CC(=O)O)NC(=O)[C@H](CO)NC(=O)[C@@H](NC(=O)[C@H](Cc2ccccc2)NC(=O)[C@@H](NC(=O)CNC(=O)[C@H](CCC(N)=O)NC(=O)C(C)(C)NC(=O)[C@@H](N)Cc2c[nH]cn2)[C@@H](C)O)[C@@H](C)O)C(=O)N[C@@H](CCC(N)=O)C(=O)N[C@@H](C)C(=O)N[C@@H](C)C(=O)N1)C(=O)N[C@@H](C)C(=O)N[C@@H](Cc1c[nH]c2ccccc12)C(=O)N[C@@H](CC(C)C)C(=O)N[C@@H](CCSC)C(=O)N[C@@H](CC(N)=O)C(=O)NCC(=O)NCC(=O)N1CCC[C@H]1C(=O)N[C@@H](CO)C(=O)N[C@@H](CO)C(=O)NCC(=O)N[C@@H](C)C(=O)N1CCC[C@H]1C(=O)N1CCC[C@H]1C(=O)N1CCC[C@H]1C(=O)N[C@@H](CO)C(=O)N[C@@H](CS)C(N)=O) [Chimera AIB2, Gly29,30 Cys40 Cex Lactam (SEQ ID NO: 489), parent w/o PEG] | 14.2 | 170 |
| H[Aib]QGTFTSDYSKYLDEQAAKEFIAWLMNC(PEG)-NH2 (reading uncertain) [Chimera AIB2, Cys29 (SEQ ID NO: 487), parent w/PEG] | 5.6 | 54.3 |
| H[Aib]QGTFTSDYSKYLDEQAAKEFIAWLMNGGPSSGAPPPSC(PEG)-NH2 (reading uncertain) [Chimera AIB2, Gly29,30 Cys40 Cex (SEQ ID NO: 488), parent w/PEG] | 0.3 | 68.8 |
| H[Aib]QGTFTSDYSKYLDEQAAKEFIC(PEG)WLMNGGPSSGAPPPS-NH2 (reading uncertain) [Chimera AIB2, Gly29,30 Cys24 Cex (SEQ ID NO: 490), parent w/PEG] | 0.2 | 95.4 |
| H[Aib]QGTFTSDYSKYLDEQAAKEFIAWLMNGGPSSGAPPPSC(PEG)-NH2 (lactam 16-20; reading uncertain) [Chimera AIB2, Gly29,30 Cys40 Cex Lactam (SEQ ID NO: 489), parent w/PEG] | 3.2 | 63.6 |
| H[Aib]QGTFTSDYSKYLDEQAAKEFIAWLMNC-NH2 (N-terminus assumed; SMILES CC[C@H](C)[C@H](NC(=O)[C@H](Cc1ccccc1)NC(=O)[C@H](CCC(=O)O)NC(=O)[C@H](CCCCN)NC(=O)[C@H](C)NC(=O)[C@H](C)NC(=O)[C@H](CCC(N)=O)NC(=O)[C@H](CCC(=O)O)NC(=O)[C@H](CC(=O)O)NC(=O)[C@H](CC(C)C)NC(=O)[C@H](Cc1ccc(O)cc1)NC(=O)[C@H](CCCCN)NC(=O)[C@H](CO)NC(=O)[C@H](Cc1ccc(O)cc1)NC(=O)[C@H](CC(=O)O)NC(=O)[C@H](CO)NC(=O)[C@@H](NC(=O)[C@H](Cc1ccccc1)NC(=O)[C@@H](NC(=O)CNC(=O)[C@H](CCC(N)=O)NC(=O)C(C)(C)NC(=O)[C@@H](N)Cc1c[nH]cn1)[C@@H](C)O)[C@@H](C)O)C(=O)N[C@@H](C)C(=O)N[C@@H](Cc1c[nH]c2ccccc12)C(=O)N[C@@H](CC(C)C)C(=O)N[C@@H](CCSC)C(=O)N[C@@H](CC(N)=O)C(=O)N[C@@H](CS)C(N)=O) [Chimera AIB2, Cys29 (SEQ ID NO: 487), parent w/o PEG] | 20.1 | 125 |
